Article PMC8969299 (Chemical Engineering Journal, 2022)

Biological target: SARS-CoV-2 (2019-nCoV) spike (S) protein RBD-His recombinant protein (SARS-CoV-2, UniProt P0DTC2)
Assay: FRET or BRET

B1: hACE2 mimic peptide beacon (COVID19-PEB) (peptide)
peptide: IEEQAKTFLDKFNHEAEDLFYQSSLASWK
Question: Does B1 bind?
Answer: Result: binds
